T1: OC-1 peptide (human)
T1 construct: Conjugated to BSA as the coating antigen in the screening ELISA; also called C-terminal 12 amino acid partial peptide of human osteocalcin
T1 peptide: FQEAYRRFYGPV


Key:
[1] = biological target: human osteocalcin (human) (UniProt P02818); assay: ELISA: 0.5 ug/mL KTM-219 on plate coated with 2 ug/mL human osteocalcin, peroxidase anti-mouse IgG detection (zero-competitor point of the competition ELISA)
OC-1 peptide [2] = biological target: T1, OC-1 peptide; assay: competitive inhibition ELISA on OC peptide-BSA with free OC peptide (hybridoma screening)
OC-1 peptide [3] = biological target: T1, OC-1 peptide; assay: open sandwich ELISA: MBP-VL adsorbed on plate, VH-AP in solution, p-nitrophenyl phosphate, OD405

Row | absorbance (450 nm) without OC-1 peptide [1] [absorbance] | binding result (OC-1 peptide [2]) | binding result (OC-1 peptide [3]) | Binder
1 | 2.28 | binds |  | mouse monoclonal antibody KTM-219 (antibody, IgG1, V domains shown, Biotin-labelled when used as the detection antibody in the sandwich ELISA; also called anti-OC-1 peptide monoclonal antibody) VH: EVQLEESGAEFVKAGASVKLSCKTSGYTFNNYWIHWVKQSPGQGLEWIGEIDPSDGYSNYNQKFKGKATLTVDKSSSTAYMHLNSLTSEDSAVYYCTSSTSVGGSWGQGTTVTVSS VL: DIELTQSPLSLPVSLGDQASISCTSSQSLLHSNGDTYLHWYLQKPGQSPKLLIYTLSNRFSGVPDRFSGSGSGTDFTLKISRVEAADLGIYFCSQTTHVPYTFGGGTKLEIKR
2 |  |  | binds | KTM-219 VH-AP fusion protein together with MBP-VL fusion protein (open sandwich pair) (other, Two separate purified periplasmic proteins; MBP-VL (about 56.5 kDa) is adsorbed on the plate and VH-AP (about 61.9 kDa) is added in solution; also called VH-alkaline phosphatase fusion protein; pET-VH219-AP product; not shown: E. coli alkaline phosphatase (1450 bp fragment of pPhoA); His tag; His-Myc tag) VH: EVQLEESGAEFVKAGASVKLSCKTSGYTFNNYWIHWVKQSPGQGLEWIGEIDPSDGYSNYNQKFKGKATLTVDKSSSTAYMHLNSLTSEDSAVYYCTSSTSVGGSWGQGTTVTVSS VL: DIELTQSPLSLPVSLGDQASISCTSSQSLLHSNGDTYLHWYLQKPGQSPKLLIYTLSNRFSGVPDRFSGSGSGTDFTLKISRVEAADLGIYFCSQTTHVPYTFGGGTKLEIKR

Source: WO2006033413A1 (dated 2006)
